Experimental data published in patent publication US20040002144A1.

What follows are binders tested against casein (assay: cell-based or functional assay).

Binder | time required for the gelation of casein [min]
S2Y mutant MTG (Ser2 replaced with Tyr, in Met type MTG), P81453 79-407 (enzyme) MDYDDRVTPPAEPLDRMPDPYRPSYGRAETVVNNYIRKWQQVYSHRDGRKQQMTEEQREWLSYGCVGVTWVNSGQYPTNRLAFASFDEDRFKNELKNGRPRSGETRAEFEGRVAKESFDEEKGFQRAREVASVMNRALENAHDESAYLDNLKKELANGNDALRNEDARSPFYSALRNTPSFKERNGGNHDPSRMKAVIYSKHFWSGQDRSSSADKRKYGDPDAFRPAPGTGLVDMSRDRNIPRSPTSPGEGFVNFDYGWFGAQTEADADKTVWTHGNHYHAPNGSLGAMHVYESKFRNWSEGYSDFDRGAYVITFIPKSWNTAPDKVKQGWP | 100
S2R mutant MTG (Ser2 replaced with Arg, in Met type MTG), P81453 79-407 (enzyme) MDRDDRVTPPAEPLDRMPDPYRPSYGRAETVVNNYIRKWQQVYSHRDGRKQQMTEEQREWLSYGCVGVTWVNSGQYPTNRLAFASFDEDRFKNELKNGRPRSGETRAEFEGRVAKESFDEEKGFQRAREVASVMNRALENAHDESAYLDNLKKELANGNDALRNEDARSPFYSALRNTPSFKERNGGNHDPSRMKAVIYSKHFWSGQDRSSSADKRKYGDPDAFRPAPGTGLVDMSRDRNIPRSPTSPGEGFVNFDYGWFGAQTEADADKTVWTHGNHYHAPNGSLGAMHVYESKFRNWSEGYSDFDRGAYVITFIPKSWNTAPDKVKQGWP | 85
S2D mutant MTG (Ser2 replaced with Asp, in Met type MTG), P81453 79-407 (enzyme) MDDDDRVTPPAEPLDRMPDPYRPSYGRAETVVNNYIRKWQQVYSHRDGRKQQMTEEQREWLSYGCVGVTWVNSGQYPTNRLAFASFDEDRFKNELKNGRPRSGETRAEFEGRVAKESFDEEKGFQRAREVASVMNRALENAHDESAYLDNLKKELANGNDALRNEDARSPFYSALRNTPSFKERNGGNHDPSRMKAVIYSKHFWSGQDRSSSADKRKYGDPDAFRPAPGTGLVDMSRDRNIPRSPTSPGEGFVNFDYGWFGAQTEADADKTVWTHGNHYHAPNGSLGAMHVYESKFRNWSEGYSDFDRGAYVITFIPKSWNTAPDKVKQGWP | 95
transglutaminase derived from Streptoverticillium mobaraense (MTG), wild type, P81453 77-407 (enzyme) DSDDRVTPPAEPLDRMPDPYRPSYGRAETVVNNYIRKWQQVYSHRDGRKQQMTEEQREWLSYGCVGVTWVNSGQYPTNRLAFASFDEDRFKNELKNGRPRSGETRAEFEGRVAKESFDEEKGFQRAREVASVMNRALENAHDESAYLDNLKKELANGNDALRNEDARSPFYSALRNTPSFKERNGGNHDPSRMKAVIYSKHFWSGQDRSSSADKRKYGDPDAFRPAPGTGLVDMSRDRNIPRSPTSPGEGFVNFDYGWFGAQTEADADKTVWTHGNHYHAPNGSLGAMHVYESKFRNWSEGYSDFDRGAYVITFIPKSWNTAPDKVKQGWP | 90
Ser-type MTG (mutant in which Asp1 has been removed, starts with Ser2), P81453 78-407 (enzyme) SDDRVTPPAEPLDRMPDPYRPSYGRAETVVNNYIRKWQQVYSHRDGRKQQMTEEQREWLSYGCVGVTWVNSGQYPTNRLAFASFDEDRFKNELKNGRPRSGETRAEFEGRVAKESFDEEKGFQRAREVASVMNRALENAHDESAYLDNLKKELANGNDALRNEDARSPFYSALRNTPSFKERNGGNHDPSRMKAVIYSKHFWSGQDRSSSADKRKYGDPDAFRPAPGTGLVDMSRDRNIPRSPTSPGEGFVNFDYGWFGAQTEADADKTVWTHGNHYHAPNGSLGAMHVYESKFRNWSEGYSDFDRGAYVITFIPKSWNTAPDKVKQGWP | 85
